In patent US20260042859A1 (Stanford University, published 2026):
Changes are numbered by the printed parent chain. In names and notes the source's numbering stands.

B1: N-terminus FLAG-tagged mutant SMAGP^T7A,T17A expressed on Ramos cells (other, UniProt Q0VAQ4 1-97, looked up)
chain: MTSLLTAPSPREELMTAPILQPTEALSPEDGASTALIAVVITVVFLTLLSVVILIFFYLYKNKGSYVTYEPTEGEPSAIVQMESDLAKGSEKEEYFI
notes: whole, on cells; Double glycosylation-site mutant; also called T7A and T17A double mutations on SMAGP; not shown: N-terminal FLAG tag
B2: N-terminus FLAG-tagged mutant SMAGP^T7A,S9A expressed on Ramos cells (other, UniProt Q0VAQ4 1-97, looked up)
chain: B1 chain with S9A, A17T
notes: whole, on cells; Double glycosylation-site mutant; not shown: N-terminal FLAG tag
B3: N-terminus FLAG-tagged mutant SMAGP^T6A,T7A expressed on Ramos cells (other, UniProt Q0VAQ4 1-97, looked up)
chain: B1 chain with T6A, A17T
notes: as for B2

molecular target: T1, human recombinant PILRa-Fc protein (human, UniProt Q9UKJ1 20-196, limits assumed); assay: flow cytometry, PILRa-Fc on Ramos cells expressing FLAG-SMAGP mutant, anti-human-IgG-PE secondary
T1 construct: Recombinant protein; also called human PILRa-Fc; not shown: Fc part
T1 sequence (Q9UKJ1 20-196 limits assumed): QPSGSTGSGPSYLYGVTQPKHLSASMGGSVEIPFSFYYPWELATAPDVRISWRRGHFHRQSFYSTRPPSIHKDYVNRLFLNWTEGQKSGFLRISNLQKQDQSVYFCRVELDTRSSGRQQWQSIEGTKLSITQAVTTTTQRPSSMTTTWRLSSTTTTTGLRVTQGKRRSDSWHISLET

binding result | Binder
no binding | B1
no binding | B2
no binding | B3
